According to article PMC7543661, “The crystal structure of the tetrameric human vasohibin-1–SVBP complex reveals a variable arm region within the structural core” (Acta Crystallographica. Section D, Structural Biology, 2020):

B1: human small vasohibin-binding protein (SVBP) (amino acids 2–66) (natural protein, UniProt Q8N300 2-66, looked up)
chain: DPPARKEKTKVKESVSRVEKAKQKSAQQELKQRQRAEIYALNRVMTELEQQQFDEFCKQMQPPGE
notes: the final model holds amino acids 26-53 (chain B); Expressed at the C-terminal end of the fusion MBP-His6-5xTEV-VASH1(56-310)-2xTEV-SVBP(2-66) and set free by TEV protease; Residues of the TEV site may be left at its N-terminus; source: E. coli One Shot BL21 Star (DE3) pLysS, purified (HisTrap FF, SP Sepharose, TEV cleavage, SP Sepharose, Superdex 200)
B2: human VASH1 core (VASH1c) region (amino acids 56–310) (domain or fragment)
chain: not shown
notes: vasohibin-1 (VASH1), human, core region, amino acids 56-310; the final model holds amino acids 56-304 (chain A); cut with TEV protease before crystallisation; Residues of the TEV sites may be left at the ends; also called vasohibin-1; source: E. coli One Shot BL21 Star (DE3) pLysS, purified (HisTrap FF, SP Sepharose, TEV cleavage, SP Sepharose, Superdex 200); not shown: MBP, N-terminal, cleaved; …

Legend:
[1] = target: B2; assay: crystal structure; purified VASH1c–SVBP complex (17.7 mg/ml), sitting-drop vapor diffusion at 20°C, 0.16 M ammonium sulfate, 0.08 M sodium acetate pH 4.6, 20% PEG 4000, 20% glycerol; space group P6(1)22, 2.3 Å; heterotetramer formed by a crystallographic twofold axis; details: both partners purified
[2] = target: the molecule itself; assay: as above

Row | binding result [1] | Binder | binding result [2]
1 | binds | B1 | 
2 |  | B2 | binds
